Measurements taken from IntAct's records for PubMed 32761762.

B1: NAD-dependent protein deacetylase sirtuin-1 (Homo sapiens), Q96EB6 (parent)
chain: MADEAALALQPGGSPSAAGADREAASSPAGEPLRKRPRRDGPGLERSPGEPGGAAPEREVPAAARGCPGAAAAALWREAEAEAAAAGGEQEAQATAAAGEGDNGPGLQGPSREPPLADNLYDEDDDDEGEEEEEAAAAAIGYRDNLLFGDEIITNGFHSCESDEEDRASHASSSDWTPRPRIGPYTFVQQHLMIGTDPRTILKDLLPETIPPPELDDMTLWQIVINILSEPPKRKKRKDINTIEDAVKLLQECKKIIVLTGAGVSVSCGIPDFRSRDGIYARLAVDFPDLPDPQAMFDIEYFRKDPRPFFKFAKEIYPGQFQPSLCHKFIALSDKEGKLLRNYTQNIDTLEQVAGIQRIIQCHGSFATASCLICKYKVDCEAVRGDIFNQVVPRCPRCPADEPLAIMKPEIVFFGENLPEQFHRAMKYDKDEVDLLIVIGSSLKVRPVALIPSSIPHEVPQILINREPLPHLHFDVELLGDCDVIINELCHRLGGEYAKLCCNPVKLSEITEKPPRTQKELAYLSELPPTPLHVSEDSSSPERTSPPDSSVIVTLLDQAAKSNDDLDVSESKGCMEEKPQEVQTSRNVESIAEQMENPDLKNVGSSTGEKNERTSVAGTVRKCWPNRVAKEQISRRLDGNQYLFLPPNRYIFHGAEVYSDSEDDVLSSSSCGSNSDSGTCQSPSLEEPMEDESEIEEFYNGLEDEPDVPERAGGAGFGTDGDDQEAINEAISVKQEVTDMNYPSNKS
partner: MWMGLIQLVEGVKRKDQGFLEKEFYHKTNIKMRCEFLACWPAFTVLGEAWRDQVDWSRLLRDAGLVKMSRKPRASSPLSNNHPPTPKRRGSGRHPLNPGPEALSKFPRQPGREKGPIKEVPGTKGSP

Variants of: B1
Conditions: with csag2_human CSAG2, Q9Y5P2
With H363Y the “effect of a mutation on the interaction” value was “decreasing interaction”.
